We go through four molecules from US20030166872A1 (APPLIED MOLECULAR EVOLUTION, published 2003).

Usually Kd stands for a measure of binding affinity in units of concentration. High values mean lower affinity, low ones higher affinity. For orientation: koff means the first-order rate constant of dissociation. In general, kon refers to the second-order rate constant of association. A lower kon goes with slow association.

For test [1], the target named is T1, integrin αVβ3 (human), P06756.
T1 chain 1: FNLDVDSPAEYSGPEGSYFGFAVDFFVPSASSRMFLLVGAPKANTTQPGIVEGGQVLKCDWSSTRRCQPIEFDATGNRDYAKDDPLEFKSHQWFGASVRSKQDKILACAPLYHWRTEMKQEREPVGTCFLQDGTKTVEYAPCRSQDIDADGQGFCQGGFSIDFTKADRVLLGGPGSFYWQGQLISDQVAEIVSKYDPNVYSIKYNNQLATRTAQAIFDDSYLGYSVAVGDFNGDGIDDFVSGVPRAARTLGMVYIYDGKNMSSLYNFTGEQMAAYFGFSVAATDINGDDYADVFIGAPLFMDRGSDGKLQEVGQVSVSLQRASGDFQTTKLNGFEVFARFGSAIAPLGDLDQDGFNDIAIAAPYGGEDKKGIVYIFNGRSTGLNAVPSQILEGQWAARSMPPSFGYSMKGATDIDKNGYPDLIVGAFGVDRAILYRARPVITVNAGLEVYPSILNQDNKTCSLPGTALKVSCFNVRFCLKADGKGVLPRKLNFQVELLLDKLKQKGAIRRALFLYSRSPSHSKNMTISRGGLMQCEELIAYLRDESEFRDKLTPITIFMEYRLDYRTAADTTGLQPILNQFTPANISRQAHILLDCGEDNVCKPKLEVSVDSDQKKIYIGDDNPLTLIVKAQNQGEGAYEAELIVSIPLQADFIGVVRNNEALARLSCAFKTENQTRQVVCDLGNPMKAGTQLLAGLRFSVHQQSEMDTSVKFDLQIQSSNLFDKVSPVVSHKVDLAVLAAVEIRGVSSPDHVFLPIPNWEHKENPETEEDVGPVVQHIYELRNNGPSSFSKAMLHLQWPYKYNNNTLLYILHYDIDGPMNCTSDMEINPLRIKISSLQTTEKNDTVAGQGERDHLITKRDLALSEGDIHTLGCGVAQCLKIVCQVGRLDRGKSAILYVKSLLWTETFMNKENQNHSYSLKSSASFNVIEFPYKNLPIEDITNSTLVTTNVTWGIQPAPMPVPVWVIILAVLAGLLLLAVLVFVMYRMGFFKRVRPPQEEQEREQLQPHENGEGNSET
T1 chain 2: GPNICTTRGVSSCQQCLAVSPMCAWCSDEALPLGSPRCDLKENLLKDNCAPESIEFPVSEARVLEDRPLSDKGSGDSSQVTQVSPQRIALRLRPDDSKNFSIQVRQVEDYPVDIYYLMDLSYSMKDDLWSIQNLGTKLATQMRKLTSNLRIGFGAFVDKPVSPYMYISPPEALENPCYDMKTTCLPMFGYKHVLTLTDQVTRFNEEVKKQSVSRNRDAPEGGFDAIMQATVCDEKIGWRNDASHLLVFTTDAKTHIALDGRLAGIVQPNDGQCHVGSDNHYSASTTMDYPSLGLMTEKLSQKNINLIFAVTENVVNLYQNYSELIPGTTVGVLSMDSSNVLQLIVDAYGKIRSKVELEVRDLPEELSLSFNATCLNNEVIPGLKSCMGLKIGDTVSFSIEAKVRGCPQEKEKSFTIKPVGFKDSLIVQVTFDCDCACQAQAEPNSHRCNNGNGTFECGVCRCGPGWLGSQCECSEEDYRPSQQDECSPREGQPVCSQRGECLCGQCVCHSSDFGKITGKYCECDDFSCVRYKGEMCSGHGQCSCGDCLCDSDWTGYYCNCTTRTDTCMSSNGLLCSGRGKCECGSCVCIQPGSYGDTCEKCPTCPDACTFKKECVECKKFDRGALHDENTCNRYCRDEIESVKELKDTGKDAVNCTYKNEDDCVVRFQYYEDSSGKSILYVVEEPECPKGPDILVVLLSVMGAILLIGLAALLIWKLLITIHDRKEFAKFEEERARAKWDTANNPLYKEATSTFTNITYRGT
Kind of test: SPR (BIAcore), ratio of Kd. On the technique in general: In SPR one partner is held on a chip, and binding of the other changes the refractive index at the surface.

The target is the same in test [2]. The test can be described thus: SPR (BIAcore).
For test [3] the target is unchanged. Kind of test: SPR (BIAcore), Fab over immobilized αVβ3.
A further test addresses T2, integrin αVβ5 (human, UniProt P06756 31-1048; P18084 24-799).
T2 construct: mature
Kind of test: ELISA on coated integrin, detection with goat anti-human IgG alkaline phosphatase. For orientation: ELISA stands for enzyme-linked immunosorbent assay.

Test [4] concerns the target T3, integrin αVβ3 (human, UniProt P06756 31-1048; P05106 27-788).
T3 construct: mature; biotinylated in capture lift and capture ELISA; also on M21 melanoma cells in some assays; also called vitronectin receptor; αVβ3 receptor
Kind of test: ELISA screen of the position 49 library (target printed αvβ5 here, αvβ3 in paragraph 179).

Test [5] concerns the target T3, integrin αVβ3. The test can be described thus: inhibition of binding of 0.1 µg/ml biotinylated fibrinogen to immobilized αVβ3, 3 h at 37 °C, detection with NeutrAvidin alkaline phosphatase.
Test [6] addresses T3, integrin αVβ3. Kind of test: SPR (BIAcore).

Numbering of substitutions follows the chain as printed. A value given as a limit tells only on which side of the number the result lay.

T2 sequence (P18084 24-799, chain 2 of 2, one chain of several): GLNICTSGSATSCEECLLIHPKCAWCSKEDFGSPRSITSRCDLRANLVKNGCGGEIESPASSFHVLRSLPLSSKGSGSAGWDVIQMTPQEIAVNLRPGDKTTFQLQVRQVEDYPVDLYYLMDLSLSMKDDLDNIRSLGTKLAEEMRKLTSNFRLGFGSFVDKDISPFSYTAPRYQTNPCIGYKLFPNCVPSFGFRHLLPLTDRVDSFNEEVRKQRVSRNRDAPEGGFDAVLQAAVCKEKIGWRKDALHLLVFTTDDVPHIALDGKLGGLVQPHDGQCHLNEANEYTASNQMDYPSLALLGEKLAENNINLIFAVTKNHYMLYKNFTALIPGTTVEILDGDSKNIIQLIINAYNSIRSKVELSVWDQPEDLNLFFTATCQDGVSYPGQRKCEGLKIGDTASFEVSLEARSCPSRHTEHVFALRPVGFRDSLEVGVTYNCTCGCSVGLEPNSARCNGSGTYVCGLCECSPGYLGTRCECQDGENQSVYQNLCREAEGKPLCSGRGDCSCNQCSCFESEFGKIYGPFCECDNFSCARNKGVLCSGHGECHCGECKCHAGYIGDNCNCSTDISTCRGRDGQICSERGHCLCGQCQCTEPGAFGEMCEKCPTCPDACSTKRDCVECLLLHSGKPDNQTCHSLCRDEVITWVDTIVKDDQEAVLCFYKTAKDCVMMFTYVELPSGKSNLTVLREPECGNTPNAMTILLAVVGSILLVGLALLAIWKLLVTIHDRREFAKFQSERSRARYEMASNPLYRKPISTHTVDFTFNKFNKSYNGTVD
Experimental for integrin αVβ5: Specifically, binding specificity was assessed by measuring binding to αIIbβ₃, the major integrin expressed on platelets, and to αVβ₅ an integrin found prevalent on endothelial cells and connective tissue cell types.
Antibody binding activity was assessed by ELISA using a goat anti-human IgG-alkaline phosphatase conjugate.

B1: LM609 grafted antibody combinatorial clone V357D (Fab)
chain 1: QVQLVESGGGVVQPGRSLRLSCAASGFTFSSYDMSWVRQAPGKGLEWVAKVSSGGGSTYYLDTVQGRFTISRDNSKNTLYLQMNSLRAEDTAVYYCARHNYGSFADWGQGTTVTVSS
chain 2: EIVLTQSPATLSLSPGERATLSCQASQSISNFLHWYQQRPGQAPRLLIRYRSQSISGIPARFSGSGSGTDFTLTISSLEPEDFAVYYCQQSGSWPHTFGGGTKVEIK
modifications: not checked
Regarding B1, the fold enhanced affinity over parent LM609 grafted antibody in test [1] is over 50 fold. The fold slower dissociation rate in test [2] is over 10 fold. Further, in test [3], the Kd amounted to 0.5 nM, the koff is 0.00014 s⁻¹ and the kon came to 279000 M⁻¹ s⁻¹.

B2: Vitaxin (antibody, V domains shown)
VH: B1 chain 1 with D106Y
VL: B1 chain 2 with F32H, R49K
notes: also called huLM609M13 1135-4; grafted LM609
As to B2, the binding result with integrin αVβ5 is recorded as “no binding (tested: about 2000 ng/ml)”.

B3: LM609 grafted antibody clone with Met at position 49 of the light chain (Fab, V domains shown)
VH: B1 chain 1 with D106Y
VL: B1 chain 2 with F32H, R49M
notes: From the library of 19 non-donor residues at light chain position 49
For the molecule B3, in the test with integrin αVβ3 [4], the binding result is on record as “binds”.

B4: LM609 grafted antibody combinatorial clone C59 (Fab, V domains shown)
VH: B1 chain 1 with L61P
VL: B1 chain 2
notes: Fab
B4: the “IC50 (read off the curve)” value with integrin αVβ3 [5] is about 0.06 µg/mL. Moreover, the “fold slower dissociation rate” value with integrin αVβ3 [6] is over 10 fold.
